From patent US20240000837A1

Biological target: HLA-C1 expressed in the tumor cell membrane (HLA class I on Panc0203 / HPAC tumor cells) (human)
Assay: flow cytometry on Panc02.03 cells, PE-conjugated anti-Fc secondary staining

In the case of “fusion protein encompassing the extracellular domain of KIR2DL2 linked to the Fc portion of an antibody (KIR2DL2-Fc) (from UniProt P43627 22-245) (Fc fusion)”, the percent of cells bound is reported as greater than 60%.
